Where two headings read alike, the source gives them in different places.
T1: human 5T4-His protein (human, UniProt Q13641 32-355)
T1 construct: also called recombinant 5T4 protein (human 5T4-his tag); human 5T4 protein; not shown: His tag
T1 sequence (looked up): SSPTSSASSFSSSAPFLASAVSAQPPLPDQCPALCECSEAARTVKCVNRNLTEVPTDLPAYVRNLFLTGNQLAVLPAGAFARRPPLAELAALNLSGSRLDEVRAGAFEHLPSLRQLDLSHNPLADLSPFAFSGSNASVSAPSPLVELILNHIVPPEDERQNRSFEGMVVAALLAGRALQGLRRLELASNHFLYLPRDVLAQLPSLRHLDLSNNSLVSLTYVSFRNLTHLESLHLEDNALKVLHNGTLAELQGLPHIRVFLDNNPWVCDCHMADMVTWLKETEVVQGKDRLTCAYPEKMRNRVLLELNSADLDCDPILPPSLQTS

T2: human 5T4 expressed on cells (human, UniProt Q13641 32-420)
T2 construct: whole, on cells; also called CHOK1-hu5T4; CHO-K1-expressing human 5T4
T2 sequence (looked up): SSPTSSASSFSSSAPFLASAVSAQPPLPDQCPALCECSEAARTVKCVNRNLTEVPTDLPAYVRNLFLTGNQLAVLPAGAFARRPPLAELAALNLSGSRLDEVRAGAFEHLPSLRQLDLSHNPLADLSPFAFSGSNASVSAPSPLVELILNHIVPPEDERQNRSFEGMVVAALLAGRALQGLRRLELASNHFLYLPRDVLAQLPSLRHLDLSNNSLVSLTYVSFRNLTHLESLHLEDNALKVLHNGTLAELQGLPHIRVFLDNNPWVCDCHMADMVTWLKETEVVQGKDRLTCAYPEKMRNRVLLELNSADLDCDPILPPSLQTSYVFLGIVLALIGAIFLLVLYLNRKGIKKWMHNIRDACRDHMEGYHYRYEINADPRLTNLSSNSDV


Key:
human 5T4-His protein [1] = molecular target: T1, human 5T4-His protein; assay: SPR Biacore, Protein A capture
human 5T4-His protein [2] = molecular target: T1, human 5T4-His protein; assay: SPR Biacore, Protein A capture; remark: listed apart in the source
Description: The binding affinity of tested antibodies against recombinant 5T4 protein (human 5T4-his tag) was tested with Biacore using a capture method. The antibodies were captured using Protein A chip. A serial dilution of human 5T4-his tag protein was injected over captured antibody for 3 mins at a flow rate of 30 μl/min. The antigen was allowed to dissociate for 300 s. All the experiments were carried out on a Biacore T200. Data analysis was carried out using Biacore T200 evaluation software.

human 5T4-His protein [3] = molecular target: T1, human 5T4-His protein; assay: ELISA, coated human 5T4-His
Description: (§1) Briefly, microtiter plates were coated with human 5T4-His protein at 2 μg/ml in PBS, 30 μl/well at 4° C. overnight, then blocked with 5% PBS/Milk. Serial dilutions of antibodies were added to each well and incubated for 1 hour at room temperature. The plates were washed with PBS/Tween and then incubated with Goat Anti-Human IgG-HRP for 50 mins at room temperature. After washing, the plates were developed with TMB substrate and analyzed by spectrophotometer at OD 450 nm.

[4] = molecular target: T2, human 5T4 expressed on cells; assay: flow cytometry, MCF-7 cells
Description: (§2) To evaluate the binding property of affinity maturated antibodies to surface 5T4, tested antibodies were analyzed for their binding to CHOK1-hu5T4, HEK293-hu5T4 or MCF-7 cells by FACS. […] After wash by FACS buffer, PE conjugated-anti-human IgG antibody was added to each well and incubated at 4° C. for 30 minutes. MFI of PE was evaluated by MACSQuant Analyzer 16.

[5] = molecular target: T2, human 5T4 expressed on cells; assay: flow cytometry, CHOK1-hu5T4 cells
Description: as §2

[6] = molecular target: T2, human 5T4 expressed on cells; assay: flow cytometry, HEK293-hu5T4 cells
Description: as §2

human 5T4-His protein [7] = molecular target: T1, human 5T4-His protein; assay: ELISA, coated human 5T4-His; remark: listed apart in the source
Description: as §1

[8] = molecular target: T2, human 5T4 expressed on cells; assay: flow cytometry, CHOK1-hu5T4 cells; remark: listed apart in the source
Description: as §2

[9] = molecular target: T2, human 5T4 expressed on cells; assay: flow cytometry, HEK293-hu5T4 cells; remark: listed apart in the source
Description: as §2

[10] = molecular target: T2, human 5T4 expressed on cells; assay: flow cytometry, CHOK1-hu5T4 cells; remark: listed apart in the source

fold increase of binding affinity against the parental Hu14G12-28 (human 5T4-His protein [1]) [fold] | Kd (human 5T4-His protein [2]) [nM] | koff (human 5T4-His protein [2]) [s⁻¹] | kon (human 5T4-His protein [2]) [M⁻¹ s⁻¹] | EC50 (read off the curve) (human 5T4-His protein [3]) [nM] | EC50 (read off the curve) [4] [nM] | EC50 (read off the curve) [5] [nM] | EC50 (read off the curve) [6] [nM] | EC50 (read off the curve) (human 5T4-His protein [7]) [nM] | EC50 (read off the curve) [8] [nM] | EC50 (read off the curve) [9] [nM] | EC50 (read off the curve) [10] [nM] | Binder
– | – | – | – | – | – | – | – | – | – | – | 2 | trispecific antibody with anti-5T4 portion of Hu393E9-45-P2 (protein, part only; not given: other two arms, Fc, linkers, format, not shown: another chain or arm of the molecule; a dimerising Fc or GST; small tags and cut ends) VH: EVQLVESGGGLVQPGGSLRLSCAASGFTFTDYYMSWVRQAPGKGLEWVGFIRNKGNGYTTEYSASVKGRFTISRDNSKSSLYLQMNSLKTEDTAVYYCARYRGNPHYAMDYWGQGTLVTVSS VL: EIVLTQSPGTLSLSPGERATLSCRASESVEFYGTSFLQWYQQKPGQAPRLLIYGASNVESGIPDRFSGSGSGTDFTLTISRLEPEDIAVYFCQQSRKVPSTFGGGTKVEIK
– | – | – | – | – | – | – | – | – | – | – | 2 | trispecific antibody with anti-5T4 portion of Hu393E9-62-P2 (protein, part only; not given: other two arms, Fc, linkers, format, not shown: another chain or arm of the molecule; a dimerising Fc or GST; small tags and cut ends) VH: EVQLVESGGGLVQPGGSLRLSCAASGFTFTDYYMSWVRQAPGKGLEWVGFIRNKGNGYTTEYSASVKGRFTISRDNAKSSLYLQMNSLRAEDTAVYYCARYRGNPHYAMDYWGQGTLVTVSS VL: EIVLTQSPATLSVSPGERATLSCRASESVEFYGTSFLQWYQQKPGQAPRLLIYGASNVESGIPARFSGSGSGTEFTLTISSLQSEDIAVYFCQQSRKVPSTFGGGTKVEIK

Further lines, the binder ahead of its results:

Binder | fold increase of binding affinity against the parental Hu14G12-28 (human 5T4-His protein [1]) [fold] | Kd (human 5T4-His protein [2]) [nM] | koff (human 5T4-His protein [2]) [s⁻¹] | kon (human 5T4-His protein [2]) [M⁻¹ s⁻¹] | EC50 (read off the curve) (human 5T4-His protein [3]) [nM] | EC50 (read off the curve) [4] [nM] | EC50 (read off the curve) [5] [nM] | EC50 (read off the curve) [6] [nM] | EC50 (read off the curve) (human 5T4-His protein [7]) [nM] | EC50 (read off the curve) [8] [nM] | EC50 (read off the curve) [9] [nM] | EC50 (read off the curve) [10] [nM]
Hu14G12-28-108# (antibody, V domains shown) VH: QVQLVQSGAEVKKPGASVKVSCKASGYAFSSSWMNWVRQAPGQGLEWMGRIYREDGHTNYNGKFKGRVTMTADKSITTAYMELSRLRSDDTAVYYCANGGAMDYWGQGTLVTVSS VL: DIQMTQSPSSLSASVGDRVTITCRASQDISNYLNWYQQKPGKAPKLLIYYTSRLHSGVPSRFSGSGSGTDYTFTISSLQPEDIATYFCANDNTLPWTFGGGTKVEIK | 7.41 | 0.552 | 0.000101 | 183000 | ~0.1 | ~0.3 | ~1 | ~2 | – | – | – | –
Hu14G12-28-88# (antibody, V domains shown) VH: QVQLVQSGAEVKKPGASVKVSCKASGYAFSSSWMNWVRQAPGQGLEWMGRIYREDGHTNYNGKFKGRVTMTADKSITTAYMELSRLRSDDTAVYYCANGGAMDYWGQGTLVTVSS VL: DIQMTQSPSSLSASVGDRVTITCRASQDISNYLNWYQQKPGKAPKLLIYYTSRLHSGVPSRFSGSGSGTDYTFTISSLQPEDIATYFCGNDNTLPWTFGGGTKVEIK | 9.45 | 0.433 | 8.28e-05 | 191000 | – | ~0.3 | – | – | ~0.2 | ~2 | ~2 | –

From US20250154277A1 (CONCEPT TO MEDICINE BIOTECH, published 2025)
